The test system of data set [1] is vaginal epithelium. The data set can be described thus: Vaginal epithelial integrity and thickness in OVX mice, histology. To be noted: ivag for 9 consecutive days, peptide dimer 10^−4 μM, Fc-EFNA3 1 μM. The format is in vivo. Here is the method: Mice in estrus and OVX mice were used in these experiments. OVX mice received PBS alone, EFNA3-derived peptide dimer (10^−4 μM) or recombinant mouse Fc-EFNA3 (1 μM) via atraumatic intravaginal administration for 9 consecutive days. All mice were euthanized, and vaginal tissue processed for histological evaluation and measurement of vaginal epithelial thickness.
8-10 weeks female C57BL/6J mice were anesthetized. Dorsal skin was shaved and cleaned with 70% ethanol followed by povidone-iodine. Following appropriate sterile technique, a single dorsal skin incision was performed, followed by dissection until ovarian fat pads were identified and ovaries removed. Peritoneal and abdominal walls were sutured, and mice recovered from anesthesia. After confirmation of suppression of estrous cycle, mice were used in experiments.

Data set [2] has as its system VK2/E6E7 vaginal cells. Kind of data set: DSG1 gene expression in human vaginal epithelial cell line. The format is cell-based. To be noted: 24 h, qRT-PCR. The procedure: VK2/E6E7 vaginal cells at 70-90% confluency were treated with indicated concentrations of EFNA3-derived peptide dimer for 24 h. Cells were harvested for RNA isolation and determination of relative DSG1 gene expression via qRT-PCR and ΔΔCt analysis.
VK2/E6E7 (ATCC® CRL-2616™) vaginal epithelial cell line was grown using ReproLife™ Reproductive Medium Complete Kit for up to 4 passages. For experiments, 10^5 cells were plated in 12-well plates. Cells reached 70-90% confluency after 24 hand were stimulated with EFNA3-like peptide dimer or vehicle. Cells were incubated for 24 h with indicated treatments. RNA was extracted and 500 ng of RNA used to generate cDNA using the SuperScript™ IV VILO™ Master Mix. Relative DSG1 (Hs00355084_m1) gene expression was calculated by normalization with the housekeeping gene glucose-6-phosphate isomerase (Hs00976711_m1) via qRT-PCR.
(Real-time PCR tracks product formation cycle by cycle.)

Data set [3] concerns desmoglein-1a (DSG1a). Kind of data set: qRT-PCR of Dsg1a gene expression in vaginal tissue. The format is in vivo, mice. The procedure:
(§1) To define progestin-mediated changes in mucosal permeability, vaginal tissue from mice in estrus, diestrus, or after DMPA or LNG treatment was used to measure expression of the desmosomal cadherins desmoglein-1a (DSG1a) and desmocollin-1 (DSC1).
(§2) Human ectocervical and murine vaginal tissues were immediately immersed in 1 mL of RNAlater® (Qiagen), stored for 24 h at 4° C., and stored long-term at −80° C. RNA isolated using the RNeasy Lipid Tissue Kit (Qiagen) using manufacturer's instructions was re-suspended in nuclease-free water and quantified using a NanoDrop spectrophotometer (Thermo Scientific). The following mouse primers were utilized: desmocollin 1 (Mm00496525_ml), desmoglein-1α (Mm00809994_s1), ephrinA3 (Mm01212723_g1) and pyruvate carboxylase (Mm00500992_ml) as housekeeping reference gene (all from Thermo Scientific). These human primers were used: desmoglein-1 (Hs00355084_m1) and glucose-6-phosphate isomerase (Hs00976711_m1) as a housekeeping reference gene. To define relative gene expression, 100 ng of RNA was mixed with TaqMan® RNA-to-Ct™ 1-Step Kit and adequate primer (final volume of 10 μL/well) using manufacturer's instructions (Life Technologies). qRT-PCR was performed using a Quantstudio3 Thermal Cycler, and data analyzed via Quanstudio Software (Applied Biosystems).

Data set [4] deals with DSG1 protein. The data set can be described thus: DSG1 protein levels in vaginal tissue, immunofluorescent staining and confocal microscopy. In kind it is in vivo, mice. Here is the method:
Excised mouse vaginas were formaldehyde fixed and paraffin embedded (FFPE), and 10 μm sections mounted on glass slides and de-paraffinized by sequential immersion in 100% xylene, 100% ethanol, 96% ethanol, and sterile DEPC-treated water. Antigen retrieval was performed using 10 mM sodium citrate buffer (pH 6.0) containing 0.05% Tween 20 (both Sigma-Aldrich) (20 minutes at 95° C.). After 3 PBS washes, sections were incubated overnight in 10% normal goat serum (Abcam, Cambridge Mass.) at 4° C., then incubated for 1 h at ambient temperate with rabbit anti-desmoglein-1 (clone EPR6766(B)) antibody, washed and incubated for 1 h with AlexaFluor® 488-labeled goat anti-rabbit IgG (antibodies from Abcam) (all antibodies were diluted in PBS with 1% BSA and 0.05% Tween 20). Sections were stained with DAPI and evaluated for levels of DSG1 protein (defined by calculating pixel numbers per 100 μm^2) using confocal microscopy and ImageJ software.

Data set [5] concerns genital mucosal barrier. Kind of data set: Murine tissue permeability assay, low molecular weight fluorescent molecules given intravaginally. The format is in vivo, mice. Here is the method: Effects of progestins on genital mucosal barrier permeability were evaluated by intravaginally (ivag) administering 457 Da and 70 KDa-sized fluorescent molecules to mice in estrus or diestrus-stage or after DMPA or LNG treatment. Mice were grouped as follows: untreated in estrus, untreated in diestrus, DMPA treated, or LNG treated. The mice were intravaginally administered a PBS solution containing Lucifer yellow (457 Da) and Texas-Red-conjugated dextran (70 KDa). Animals were euthanized 45 minutes later to assess vaginal tissue penetration of these molecules by confocal microscopy. […] Mucosal permeability was increased moderately by diestrus, but dramatically by DMPA or LNG. Conversely, permeability increases were negligible in estrus-stage mice and mice treated with MePRDL or DMPA and RU486. This indicates exogenous progestins increase genital mucosal permeability.
To evaluate mucosal permeability to low molecular weight molecules, indicated groups of mice were sedated, and 10 μL of a PBS solution containing 62.5 μg of dextran Texas-Red® (DR) (MW=70,000 Da) and 50 μg of Lucifer yellow CH, lithium salt (LY) (MW=457.2 Da) (both from Life Technologies) administered intravaginally. 45 minutes later, mice were euthanized, and excised vaginal tissue fixed in formaldehyde. Fixed tissue was embedded in agarose, and 200-300 μm specimens were sectioned with a vibratome. After counterstaining with 4,6-diamidino-2-phenylindole (DAPI), confocal microscopy images were acquired by sequential scanning to prevent fluorescence crossover.

The test system of data set [6] is anti-OVA IgE. Kind of data set: Mouse epicutaneous sensitization model of atopic dermatitis, serum anti-OVA IgE ELISA. In kind it is in vivo, mice. The conditions noted are these: 3 cycles, OVA + Fc-EFNA3 vs OVA alone. The procedure: Mice underwent epicutaneous sensitization with OVA alone or in combination with recombinant mouse Fc-EFNA3. After 3 sensitization cycles, animals were euthanized to obtain blood for serum isolation. Then, levels of serum anti-OVA IgE was determined via ELISA.
6-10 weeks old Balb/cJ mice were anesthetized. Dorsal skin was shaved, and skin tape-stripped 6 times. PBS alone, 100 μg of ovalbumin (OVA) in PBS or 100 μg OVA+recombinant mouse Fc-EFNA3 in 100 μl of PBS were added to a 1×1 cm sterile gauze that was applied directly to tape-stripped area of skin and covered with a transparent bio-occlusive dressing. This patch was left in place for a 1-week period and removed. This procedure was repeated twice with 2-week intervals between applications. After completing the 3rd skin sensitization, mice were euthanized and serum samples obtained. Serum levels of anti-OVA IgE were was determined using an in-house ELISA.

Data set [7] relates to desmocollin-1 (DSC1). The data set can be described thus: qRT-PCR of Dsc1 gene expression in vaginal tissue. In kind it is in vivo, mice. To be noted: DMPA-treated mice. Here is the method:
as §1, §2

The subject of data set [8] is HSV-2. Kind of data set: Lethal genital HSV-2 infection. The format is in vivo. The conditions noted are these: DMPA-treated mice; 10^4 pfu of HSV-2. Here is the method: Mice were sedated with xylazine (Lloyd Laboratories, Shenandoah Iowa) and ketamine hydrochloride (JHP Pharmaceuticals, LLC Rochester Mich.), and intravaginally infected with 10^4 plaque-forming units (pfu) of WT HSV-2 333 in 10 μL of RPMI. Mouse mortality was evaluated daily for 15 days.

“Also recorded” adds a separate entry of the source. Square brackets hold non-standard residues; d marks the D form. Ends that are not written are not given here. Ahx = NCCCCCC(=O)O

With “RYSAFSLGYEFH-Ahx-K-HFEYGLSFASYR (RYSAFSLGYEFH[Ahx]KHFEYGLSFASYR; also: Ahx-Lys linked dimer) [EFNA3-derived peptide dimer, Ahx is aminohexanoic acid]”, the “vaginal epithelial integrity (epithelial thickness)” value in data set [1] is “improves vaginal epithelial integrity”. The DSG1 gene expression result in data set [2] was “increase DSG1 expression; also recorded: promotes DSG1 expression”. In addition, in data set [3] (DMPA-treated mice, Fc-EFNA3 at 1 μM), the “potency on Dsg1a expression compared to recombinant mouse Fc-EFNA3” value is listed as “greater potency”. The “Dsg1a mouse vaginal expression” value in data set [3] (DMPA-treated mice, topical/ivag in PBS, 24 hours) is on record as “promotes Dsg1a mouse vaginal expression”. Also, the “expression of cell-cell adhesion molecules in genital mucosal epithelium” value in data set [3] (topical administration) is given as “significantly increases”.

B1: Fc-EFNA3: Recombinant Mouse Ephrin-A3 Fc Chimera Protein, SEQ ID NO: 13 (protein)
chain: QGPGGALGNRHAVYWNSSNQHLRREGYTVQVNVNDYLDIYCPHYNSSGPGGGAEQYVLYMVNLSGYRTCNASQGSKRWECNRQHASHSPIKFSEKFQRYSAFSLGYEFHAGQEYYYISTPTHNLHWKCLRMKVFVCCASTSHSGEKPVPTLPQFTMGPNVKINVLEDFEGENPQVPKLEKSISGIEGRMDPAKTTAPSVYPLAPVCGDTTGSSVTLGCLVKGYFPEPVTLTWNSGSLSSGVHTFPAVLQSDLYTLSSSVTVTSSTWPSQSITCNVAHPASSTKVDKKIEPRGPTIKPCPPCKCPAPNLLGGPSVFIFPPKIKDVLMISLSPIVTCVVVDVSEDDPDVQISWFVNNVEVHTAQTQTHREDYNSTLRVVSALPIQHQDWMSGKEFKCKVNNKDLPAPIERTISKPKGSVRAPQVYVLPPPEEEMTKKQVTLTCMVTDFMPEDIYVEWTNNGKTELNYKNTEPVLDSDGSYFMYSKLRVEKKNWVERNSYSCSVVHEGLHNHHTTKSFSRTPGK
In the case of B1, the “vaginal epithelial integrity (epithelial thickness)” value in data set [1] is reported as “improves vaginal epithelial integrity”. Also, the “homogeneity of DSG1 protein expression” value in data set [4] (1.5 ug in 30 uL of PBS vs 0.5 ug in 10 uL of PBS) is recorded as “more homogeneous expression”. The “dose that optimized levels of DSG1 protein” value in data set [4] (DMPA-treated mice, 24 hours after treatment) stood at 0.5 µg. For the same molecule, the “DSG1 expression at higher doses” value in data set [4] (DMPA-treated mice, 24 hours, doses above 1 μg) is “reduced at higher doses”. The “DSG1 protein expression, dose dependence” value in data set [4] (DMPA-treated mice, 24 hours, up to the 1 μg dose) is “dose-dependent increase”. Moreover, the “genital mucosal barrier function / permeability to LMW fluorescent molecules” value in data set [5] (DMPA-treated mice, one ivag dose of 1.5 ug/30 uL) is recorded as “decreased genital mucosal permeability”. For the same molecule, in data set [5] (via increased expression of epithelial cell-cell adhesion molecules, especially DSG1), the “genital mucosal barrier function (summary of the studies)” value is reported as “enhanced genital mucosal barrier function”. Further, the “dose that optimized Dsg1a gene expression” value in data set [3] (DMPA-treated mice, ivag 0.25, 0.5, 1 and 2.5 μg in 10 μL, six hours after treatment) was 0.5 µg. In addition, the “expression of Dsg1a” value in data set [3] (DMPA-treated mice, ivag, select doses vs Fc-control, 6 h) was “increased expression”. Also, the “serum allergen-specific (anti-OVA) IgE levels” value is listed as “reduces allergen sensitization” in data set [6] and “decreased allergen-specific IgE levels” in data set [6] (listed as recombinant mouse Fc-EFNA3). For the same molecule, in data set [7] (ivag 0.25, 0.5, 1 and 2.5 μg in 10 μL, six hours after treatment), the “dose that optimized Dsc1 gene expression” value was 0.5 µg. In addition, in data set [7] (ivag, select doses vs Fc-control, 6 h), the “expression of Dsc1” value is recorded as “increased expression”. In data set [8], the “survival after genital HSV-2 infection” value is “improves the survival”.

The values above are taken from patent US20220362330A1, “Compositions and Methods for Increasing Epithelial Barrier Function” (The Board of Trustees of the Leland Stanford Junior …, priority 2019, published 2022).
